Patent US20160068834A1 (published 2016)
Like-named read-outs stand apart in the source and are kept apart here. Blank lines part the entries; values can stand above or below the binder they belong to. Bridges are numbered along the chain shown (N, C = ends). Where no end group is shown, it is not given here. [ ]: non-standard residue; d: D form. The star is where a group is joined. FITC = O=C1OC2(c3ccc(O)cc3Oc3cc(O)ccc32)c2ccc(NC(=S)*)cc21; S5 = C=CCCC[C@](C)(N)C(=O)O; Nle = CCCC[C@H](N)C(=O)O

Tests used:
[1] = molecular target: T1, C-terminal His-tagged EED (His-EED) (UniProt O75530 1-441); assay: fluorescence polarization
purified EED (Example 6) = purified EED (Example 6) (UniProt O75530 1-441); assay: competitive fluorescence polarization; competition against FITC-EZH2(42-68)
[2] = molecular target: T1, C-terminal His-tagged EED (His-EED); assay: fluorescence polarization; remark: listed apart in the source

T1 sequence (O75530 whole entry): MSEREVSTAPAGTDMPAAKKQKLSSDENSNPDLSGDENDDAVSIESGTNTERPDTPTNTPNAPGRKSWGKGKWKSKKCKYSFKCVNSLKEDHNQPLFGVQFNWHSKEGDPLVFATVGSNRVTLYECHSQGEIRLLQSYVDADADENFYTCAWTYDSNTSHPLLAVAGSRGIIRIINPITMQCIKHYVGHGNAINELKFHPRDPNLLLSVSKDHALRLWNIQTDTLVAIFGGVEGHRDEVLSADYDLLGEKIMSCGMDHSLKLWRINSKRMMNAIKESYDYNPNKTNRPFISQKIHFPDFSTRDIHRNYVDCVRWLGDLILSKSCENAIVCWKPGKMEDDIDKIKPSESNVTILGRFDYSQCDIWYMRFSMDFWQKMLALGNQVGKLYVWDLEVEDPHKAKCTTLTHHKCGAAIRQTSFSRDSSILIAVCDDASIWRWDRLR
Sequence of purified EED (Example 6) (O75530 whole entry): as above

Kd [1]: 528 nM
B1: FITC-SAH-EZH2B(42-68) (peptide)
peptide: {FITC}-FSSNRQKILERT[S5]ILN[S5]EWKQRRIQPV
modifications: staple 13-17

Kd (purified EED (Example 6)): 650 nM
B2: acetyl-SAH-EZH2(42-68)AC (peptide)
peptide: Ac-FSSNR[S5]KIL[S5]RT[S5]ILN[S5]EWKQRRIQPV
modifications: staple 6-10, 13-17

Kd [1]: 264 nM
B4: FITC-SAH-EZH2B(40-68) (peptide)
peptide: {FITC}-S[Nle]FSSNRQKILERT[S5]ILN[S5]EWKQRRIQPV
modifications: staple 15-19

Kd (purified EED (Example 6)): 1130 nM
B7: acetyl-SAH-EZH2 (peptide)
peptide: Ac-FSSNR[S5]KIL[S5]RTQILNQEWKQRRIQPV
modifications: staple 6-10

The remaining lines, values behind:

B3: FITC-SAH-EZH2A(40-68) (peptide)
peptide: {FITC}-S[Nle]FSSNR[S5]KIL[S5]RTEILNQEWKQRRIQPV
modifications: staple 8-12
Kd [1]: 333 nM

B5: FITC-SAH-EZH2A(42-68) (peptide)
peptide: {FITC}-FSSNR[S5]KIL[S5]RTEILNQEWKQRRIQPV
modifications: staple 6-10
Kd [1]: 468 nM

B6: FITC-SAH-EZH2A(42-68)E54Q/E59Q (peptide)
peptide: {FITC}-FSSNR[S5]KIL[S5]RTQILNQQWKQRRIQPV
modifications: staple 6-10
Kd [2]: > 10000 nM

B8: FITC-SAH-EZH2A(42-68)E54Q (peptide)
peptide: {FITC}-FSSNR[S5]KIL[S5]RTQILNQEWKQRRIQPV
modifications: staple 6-10
Kd [2]: 320 nM
